Consider one molecule from US20220251237A1 (R P SCHERER TECHNOLOGIES, published 2022).

Experiment [1] addresses T1, human glypican-2 His-tagged protein (R&D Systems) (human, UniProt Q8N158 24-554, limits assumed).
T1 construct: Bought; not shown: His tag
T1 sequence (looked up): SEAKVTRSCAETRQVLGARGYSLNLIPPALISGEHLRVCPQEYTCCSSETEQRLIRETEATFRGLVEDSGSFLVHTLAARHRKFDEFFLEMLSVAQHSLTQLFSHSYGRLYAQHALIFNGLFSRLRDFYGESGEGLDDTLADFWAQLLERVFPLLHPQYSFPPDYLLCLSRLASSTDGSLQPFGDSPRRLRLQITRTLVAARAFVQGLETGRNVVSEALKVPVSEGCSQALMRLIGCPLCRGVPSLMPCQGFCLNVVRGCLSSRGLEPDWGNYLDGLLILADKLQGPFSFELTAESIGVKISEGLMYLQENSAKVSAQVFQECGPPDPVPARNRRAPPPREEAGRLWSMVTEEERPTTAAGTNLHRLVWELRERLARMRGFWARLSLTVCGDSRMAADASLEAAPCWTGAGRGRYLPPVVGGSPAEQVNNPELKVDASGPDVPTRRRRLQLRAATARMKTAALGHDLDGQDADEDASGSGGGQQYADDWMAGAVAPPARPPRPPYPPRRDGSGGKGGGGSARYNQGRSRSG
The experiment in a line: ELISA, plate coated with 1 µg/mL His-tagged glypican. As for the experimental part:
(§1) To perform the ELISA, Maxisorp 96-well plates (Nunc) were coated overnight at 4° C. with 1 μg/mL of human glypican His-tagged proteins (glypican-1, glypican-2, glypican-3, glypican-5, and glypican-6 all from R&D Systems) in PBS. The plates were blocked with casein buffer (ThermoFisher), and then CAT-07 was plated in an 11-step series of 2-fold dilutions starting at 150 ng/mL. The plates was incubated, shaking, at room temperature for 2 h. After washing in PBS 0.1% Tween-20, bound analyte was detected with a donkey anti-human Fc-γ-specific horseradish peroxidase (HRP)-conjugated secondary antibody. Signals were visualized with Ultra TMB (Pierce) and quenched with 2 N H₂SO₄. Absorbance at 450 nm was determined using a Molecular Devices SpectraMax M5 plate reader and the data were analyzed using GraphPad Prism.
A general note: An ELISA detects its analyte on a solid surface through an enzyme-linked reagent.

In experiment [2] the target is T2, human glypican-1 His-tagged protein (R&D Systems) (human, UniProt P35052 24-530, limits assumed).
T2 construct: Bought; not shown: His tag
T2 sequence (looked up): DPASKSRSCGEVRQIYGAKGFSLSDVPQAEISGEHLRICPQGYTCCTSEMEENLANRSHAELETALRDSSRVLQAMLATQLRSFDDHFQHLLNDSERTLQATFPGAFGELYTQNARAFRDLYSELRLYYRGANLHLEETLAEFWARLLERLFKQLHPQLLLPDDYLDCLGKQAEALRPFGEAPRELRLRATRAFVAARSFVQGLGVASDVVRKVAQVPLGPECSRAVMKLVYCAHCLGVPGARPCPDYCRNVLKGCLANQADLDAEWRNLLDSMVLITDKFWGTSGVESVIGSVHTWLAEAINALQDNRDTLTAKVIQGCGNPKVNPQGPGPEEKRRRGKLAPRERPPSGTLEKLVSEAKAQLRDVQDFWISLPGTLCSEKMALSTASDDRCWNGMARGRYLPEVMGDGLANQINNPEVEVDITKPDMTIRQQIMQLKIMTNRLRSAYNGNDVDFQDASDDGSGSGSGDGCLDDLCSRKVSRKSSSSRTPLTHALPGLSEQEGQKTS
The experiment is described as above. On the procedure: as §1

The target of experiment [3] is T3, human glypican-5 His-tagged protein (R&D Systems) (human, UniProt P78333 25-551, limits assumed).
T3 construct: Bought; not shown: His tag
T3 sequence (looked up): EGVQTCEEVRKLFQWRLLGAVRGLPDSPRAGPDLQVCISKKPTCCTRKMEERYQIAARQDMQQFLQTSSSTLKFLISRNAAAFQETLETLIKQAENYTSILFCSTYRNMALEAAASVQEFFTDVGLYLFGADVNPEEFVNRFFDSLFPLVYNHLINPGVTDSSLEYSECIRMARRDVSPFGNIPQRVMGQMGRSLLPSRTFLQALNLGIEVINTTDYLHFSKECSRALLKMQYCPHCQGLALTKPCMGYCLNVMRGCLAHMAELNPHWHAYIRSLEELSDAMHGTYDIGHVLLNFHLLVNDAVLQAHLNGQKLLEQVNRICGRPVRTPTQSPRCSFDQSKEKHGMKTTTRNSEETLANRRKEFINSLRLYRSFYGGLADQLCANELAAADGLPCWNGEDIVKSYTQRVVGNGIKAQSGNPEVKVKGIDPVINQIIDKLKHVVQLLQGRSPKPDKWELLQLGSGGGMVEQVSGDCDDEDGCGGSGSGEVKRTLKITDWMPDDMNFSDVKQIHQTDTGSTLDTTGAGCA
The experiment is described as above. On the procedure: as §1

Experiment [4] deals with T4, human glypican-6 His-tagged protein (R&D Systems) (human, UniProt Q9Y625 24-529, limits assumed).
T4 construct: Bought; not shown: His tag
T4 sequence (looked up): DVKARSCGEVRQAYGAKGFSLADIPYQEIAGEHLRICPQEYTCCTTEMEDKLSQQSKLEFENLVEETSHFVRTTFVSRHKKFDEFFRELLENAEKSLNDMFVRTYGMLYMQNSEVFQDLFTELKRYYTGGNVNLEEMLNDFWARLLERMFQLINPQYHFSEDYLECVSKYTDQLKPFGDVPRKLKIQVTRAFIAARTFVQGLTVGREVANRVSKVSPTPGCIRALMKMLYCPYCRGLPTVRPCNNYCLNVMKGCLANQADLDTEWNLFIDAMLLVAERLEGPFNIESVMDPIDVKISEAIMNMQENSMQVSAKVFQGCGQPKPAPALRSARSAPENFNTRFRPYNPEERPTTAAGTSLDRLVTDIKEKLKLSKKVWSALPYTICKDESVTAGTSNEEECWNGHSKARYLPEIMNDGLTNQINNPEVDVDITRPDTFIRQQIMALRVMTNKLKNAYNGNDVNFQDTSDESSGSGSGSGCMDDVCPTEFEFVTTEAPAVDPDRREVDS
The experiment is described as above. On the procedure:
as §1

In experiment [5] the target is T5, human glypican-3-His (R&D Systems) (human, UniProt P51654 25-559).
T5 construct: Bought His-tagged protein; also called recombinant human glypican-3 protein; GPC3; not shown: His tag
T5 sequence (P51654 25-559 limits assumed): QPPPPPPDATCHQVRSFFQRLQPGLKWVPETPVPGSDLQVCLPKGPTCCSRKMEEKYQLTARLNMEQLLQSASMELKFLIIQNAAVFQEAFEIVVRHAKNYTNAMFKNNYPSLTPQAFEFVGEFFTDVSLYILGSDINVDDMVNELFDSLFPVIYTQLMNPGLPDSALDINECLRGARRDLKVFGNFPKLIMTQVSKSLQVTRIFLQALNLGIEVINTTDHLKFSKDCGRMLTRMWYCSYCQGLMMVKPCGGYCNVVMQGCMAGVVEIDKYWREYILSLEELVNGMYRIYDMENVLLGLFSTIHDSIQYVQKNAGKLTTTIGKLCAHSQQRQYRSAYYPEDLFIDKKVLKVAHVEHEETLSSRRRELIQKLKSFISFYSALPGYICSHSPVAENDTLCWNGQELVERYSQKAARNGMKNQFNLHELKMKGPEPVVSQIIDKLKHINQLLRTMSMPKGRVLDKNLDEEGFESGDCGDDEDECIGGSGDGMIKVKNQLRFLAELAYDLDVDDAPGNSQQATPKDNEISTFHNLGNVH
The experiment can be described thus: ELISA, plate coated with 1 µg/mL human glypican-3-His. As for the experimental part: as §1, with “human glypican-3-His (R&D” for “human glypican His-tagged proteins (glypican-1, glypican-2, glypican-3, glypican-5, and glypican-6 all from R&D”, “The plate was” for “The plates were”, “The plate” for “The plates”

B1: CAT-07 monoclonal antibody (antibody, human IgG1, kappa, V domains shown)
VH: QVQLVQSGAEVKKPGASVKVSCKASGYTFTSYFLHWVRQAPGQGLEWMGIIDPPTGRTTYAQKFQGRVTMTRDTSTSTVYMELSSLRSEDTAVYYCARGNYGGRYFDYWGQGTLVTVSS
VL: not shown
On to B1, for which the binding result in experiment [1] was “no binding (tested: 2-fold dilutions starting at 150 ng/mL)”; in experiment [2] it was “no binding (tested: 2-fold dilutions starting at 150 ng/mL)”; in experiment [3], “no binding (tested: 2-fold dilutions starting at 150 ng/mL)”; in experiment [4], “no binding (tested: 2-fold dilutions starting at 150 ng/mL)”; in experiment [5], “binds”.
